The values below come from paper PMC10700546, “Atg18 oligomer organization in assembled tubes and on lipid membrane scaffolds” (Nature Communications, 2023).

Changes are numbered by the printed parent chain. Names may count otherwise.

Data set [1] concerns the target T1, Autophagy-related protein 18 (Atg18), wildtype (Saccharomyces cerevisiae), P43601.
T1 chain: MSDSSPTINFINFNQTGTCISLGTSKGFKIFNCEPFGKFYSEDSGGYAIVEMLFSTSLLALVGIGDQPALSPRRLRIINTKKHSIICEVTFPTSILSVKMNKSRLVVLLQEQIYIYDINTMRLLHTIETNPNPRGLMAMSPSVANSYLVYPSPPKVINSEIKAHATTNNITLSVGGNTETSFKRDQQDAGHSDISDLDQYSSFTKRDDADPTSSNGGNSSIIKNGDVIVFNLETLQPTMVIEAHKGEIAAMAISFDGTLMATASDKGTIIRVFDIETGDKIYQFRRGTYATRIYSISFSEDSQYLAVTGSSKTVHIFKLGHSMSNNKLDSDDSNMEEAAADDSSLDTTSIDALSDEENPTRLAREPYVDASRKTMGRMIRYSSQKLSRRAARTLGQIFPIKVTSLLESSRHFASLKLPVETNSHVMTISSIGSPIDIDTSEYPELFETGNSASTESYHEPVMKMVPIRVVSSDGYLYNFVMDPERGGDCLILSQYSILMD
The data set is described as follows: single-particle cryo-EM, 2D classification; 18 uM soluble Atg18 in high-salt buffer (50 mM TRIS, 500 mM NaCl, 10 mM KPO4, 1 mM DTT, pH 7.5); monomer and dimer classes. Particulars: remark: other sources report otherwise.

Data set [2] concerns the molecule itself. The data set is described as follows: cryo-EM structure; helical reconstruction of Atg18 tubes; 20 uM tube solution in tube buffer (20 mM HEPES, 100 mM KAc, 1 mM DTT, pH 7.2); self-assembly into a helical lattice.

B1: Autophagy-related protein 18 (Atg18), wildtype, P43601 1-500 (natural protein)
chain: T1 chain
The stoichiometry N is the number of molecules, sites or subunits per partner or assembly. With B1, in data set [1], the stoichiometry N was found to be 2.

B2: Atg18-P72A/R73A (natural protein, Saccharomyces cerevisiae, UniProt P43601 1-500, looked up)
chain: T1 chain with P72A, R73A
notes: Atg18, Saccharomyces cerevisiae, Uniprot ID P43601, with P72A and R73A; Same construct as the wild type apart from the two substitutions; also called Atg18-PR72AA; PR72AA; source: E. coli BL21(DE3), purified (Ni-NTA, TEV cleavage, second Ni-NTA, gel filtration); not shown: 6xHis, N-terminal, cleaved
Consider B2, for which, in data set [2], the binding result is “binds”.
